Source: patent US20130316941A1 (Boehringer Ingelheim, published 2013)

What was measured:
[1] = target: human glucagon receptor (Glucagon-R) (human, UniProt P47871 26-477); assay: cell-based or functional assay
[2] = target: human glucagon-like peptide 1 receptor (GLP-1R) (human, UniProt P43220 24-463); assay: cell-based or functional assay

human glucagon receptor (Glucagon-R), sequence (P47871 26-477): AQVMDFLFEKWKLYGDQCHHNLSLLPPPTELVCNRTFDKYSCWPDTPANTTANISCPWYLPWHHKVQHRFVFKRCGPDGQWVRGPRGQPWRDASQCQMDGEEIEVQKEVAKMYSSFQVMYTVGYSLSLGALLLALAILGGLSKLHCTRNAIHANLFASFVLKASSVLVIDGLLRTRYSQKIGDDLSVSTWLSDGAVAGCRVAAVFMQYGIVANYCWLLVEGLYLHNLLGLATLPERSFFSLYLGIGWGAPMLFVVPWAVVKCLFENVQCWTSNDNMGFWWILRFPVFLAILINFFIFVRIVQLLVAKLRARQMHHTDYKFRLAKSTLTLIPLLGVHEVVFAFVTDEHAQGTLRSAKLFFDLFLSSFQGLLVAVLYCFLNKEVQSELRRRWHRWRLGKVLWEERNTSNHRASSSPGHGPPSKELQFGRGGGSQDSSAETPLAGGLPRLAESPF

B1: H-HSHGTFTSDYSKYLDE-K(Hexadecanoyl-isoGlu)-RAKDFIEWLLSA-NH2 [Compound 18] (peptide)
peptide: HSHGTFTSDYSKYLDEKRAKDFIEWLLSA
HELM: PEPTIDE1{H.S.H.G.T.F.T.S.D.Y.S.K.Y.L.D.E.K.R.A.K.D.F.I.E.W.L.L.S.A.[am]}|PEPTIDE2{[CCCCCCCCCCCCCCCC(=O)[*:2]].[gGlu]}$PEPTIDE1,PEPTIDE2,17:R3-2:R2$$$V2.0
SMILES: CCCCCCCCCCCCCCCC(=O)N[C@@H](CCC(=O)NCCCC[C@H](NC(=O)[C@H](CCC(=O)O)NC(=O)[C@H](CC(=O)O)NC(=O)[C@H](CC(C)C)NC(=O)[C@H](Cc1ccc(O)cc1)NC(=O)[C@H](CCCCN)NC(=O)[C@H](CO)NC(=O)[C@H](Cc1ccc(O)cc1)NC(=O)[C@H](CC(=O)O)NC(=O)[C@H](CO)NC(=O)[C@@H](NC(=O)[C@H](Cc1ccccc1)NC(=O)[C@@H](NC(=O)CNC(=O)[C@H](Cc1c[nH]cn1)NC(=O)[C@H](CO)NC(=O)[C@@H](N)Cc1c[nH]cn1)[C@@H](C)O)[C@@H](C)O)C(=O)N[C@@H](CCCNC(=N)N)C(=O)N[C@@H](C)C(=O)N[C@@H](CCCCN)C(=O)N[C@@H](CC(=O)O)C(=O)N[C@@H](Cc1ccccc1)C(=O)N[C@H](C(=O)N[C@@H](CCC(=O)O)C(=O)N[C@@H](Cc1c[nH]c2ccccc12)C(=O)N[C@@H](CC(C)C)C(=O)N[C@@H](CC(C)C)C(=O)N[C@@H](CO)C(=O)N[C@@H](C)C(N)=O)[C@@H](C)CC)C(=O)O
[1]
  EC50 values for cAMP generation in HEK293 cells expressing Glucagon receptor: 0.09 nM
[2]
  EC50 values for cAMP generation in HEK293 cells expressing GLP-1 receptor: 0.09 nM

B2: H-H-DSer-PGTFTSDYSKYLDE-K(Hexadecanoyl-isoGlu)-RAKDFIEWLLSA-NH2 [Compound 21] (peptide)
peptide: HSPGTFTSDYSKYLDEKRAKDFIEWLLSA
HELM: PEPTIDE1{H.[dS].P.G.T.F.T.S.D.Y.S.K.Y.L.D.E.K.R.A.K.D.F.I.E.W.L.L.S.A.[am]}|PEPTIDE2{[CCCCCCCCCCCCCCCC(=O)[*:2]].[gGlu]}$PEPTIDE1,PEPTIDE2,17:R3-2:R2$$$V2.0
SMILES: CCCCCCCCCCCCCCCC(=O)N[C@@H](CCC(=O)NCCCC[C@H](NC(=O)[C@H](CCC(=O)O)NC(=O)[C@H](CC(=O)O)NC(=O)[C@H](CC(C)C)NC(=O)[C@H](Cc1ccc(O)cc1)NC(=O)[C@H](CCCCN)NC(=O)[C@H](CO)NC(=O)[C@H](Cc1ccc(O)cc1)NC(=O)[C@H](CC(=O)O)NC(=O)[C@H](CO)NC(=O)[C@@H](NC(=O)[C@H](Cc1ccccc1)NC(=O)[C@@H](NC(=O)CNC(=O)[C@@H]1CCCN1C(=O)[C@@H](CO)NC(=O)[C@@H](N)Cc1c[nH]cn1)[C@@H](C)O)[C@@H](C)O)C(=O)N[C@@H](CCCNC(=N)N)C(=O)N[C@@H](C)C(=O)N[C@@H](CCCCN)C(=O)N[C@@H](CC(=O)O)C(=O)N[C@@H](Cc1ccccc1)C(=O)N[C@H](C(=O)N[C@@H](CCC(=O)O)C(=O)N[C@@H](Cc1c[nH]c2ccccc12)C(=O)N[C@@H](CC(C)C)C(=O)N[C@@H](CC(C)C)C(=O)N[C@@H](CO)C(=O)N[C@@H](C)C(N)=O)[C@@H](C)CC)C(=O)O
[1]
  EC50 values for cAMP generation in HEK293 cells expressing Glucagon receptor: 0.21 nM
[2]
  EC50 values for cAMP generation in HEK293 cells expressing GLP-1 receptor: 0.08 nM

B3: H-HSQGTFTSDYSRYLDE-K(Hexadecanoyl-isoGlu)-RARDFIEWLLSA-NH2 [Compound 7] (peptide)
peptide: HSQGTFTSDYSRYLDEKRARDFIEWLLSA
HELM: PEPTIDE1{H.S.Q.G.T.F.T.S.D.Y.S.R.Y.L.D.E.K.R.A.R.D.F.I.E.W.L.L.S.A.[am]}|PEPTIDE2{[CCCCCCCCCCCCCCCC(=O)[*:2]].[gGlu]}$PEPTIDE1,PEPTIDE2,17:R3-2:R2$$$V2.0
SMILES: CCCCCCCCCCCCCCCC(=O)N[C@@H](CCC(=O)NCCCC[C@H](NC(=O)[C@H](CCC(=O)O)NC(=O)[C@H](CC(=O)O)NC(=O)[C@H](CC(C)C)NC(=O)[C@H](Cc1ccc(O)cc1)NC(=O)[C@H](CCCNC(=N)N)NC(=O)[C@H](CO)NC(=O)[C@H](Cc1ccc(O)cc1)NC(=O)[C@H](CC(=O)O)NC(=O)[C@H](CO)NC(=O)[C@@H](NC(=O)[C@H](Cc1ccccc1)NC(=O)[C@@H](NC(=O)CNC(=O)[C@H](CCC(N)=O)NC(=O)[C@H](CO)NC(=O)[C@@H](N)Cc1c[nH]cn1)[C@@H](C)O)[C@@H](C)O)C(=O)N[C@@H](CCCNC(=N)N)C(=O)N[C@@H](C)C(=O)N[C@@H](CCCNC(=N)N)C(=O)N[C@@H](CC(=O)O)C(=O)N[C@@H](Cc1ccccc1)C(=O)N[C@H](C(=O)N[C@@H](CCC(=O)O)C(=O)N[C@@H](Cc1c[nH]c2ccccc12)C(=O)N[C@@H](CC(C)C)C(=O)N[C@@H](CC(C)C)C(=O)N[C@@H](CO)C(=O)N[C@@H](C)C(N)=O)[C@@H](C)CC)C(=O)O
[1]
  EC50 values for cAMP generation in HEK293 cells expressing Glucagon receptor: 0.06 nM
[2]
  EC50 values for cAMP generation in HEK293 cells expressing GLP-1 receptor: 0.06 nM

B4: H-H-Aib-QGTFTSDYSKYLDERRA-K(Hexadecanoyl-isoGlu)-DFIEWLLSA-NH2 [Compound 2] (peptide)
peptide: HXQGTFTSDYSKYLDERRAKDFIEWLLSA
HELM: PEPTIDE1{H.[Aib].Q.G.T.F.T.S.D.Y.S.K.Y.L.D.E.R.R.A.K.D.F.I.E.W.L.L.S.A.[am]}|PEPTIDE2{[CCCCCCCCCCCCCCCC(=O)[*:2]].[gGlu]}$PEPTIDE1,PEPTIDE2,20:R3-2:R2$$$V2.0
SMILES: CCCCCCCCCCCCCCCC(=O)N[C@@H](CCC(=O)NCCCC[C@H](NC(=O)[C@H](C)NC(=O)[C@H](CCCNC(=N)N)NC(=O)[C@H](CCCNC(=N)N)NC(=O)[C@H](CCC(=O)O)NC(=O)[C@H](CC(=O)O)NC(=O)[C@H](CC(C)C)NC(=O)[C@H](Cc1ccc(O)cc1)NC(=O)[C@H](CCCCN)NC(=O)[C@H](CO)NC(=O)[C@H](Cc1ccc(O)cc1)NC(=O)[C@H](CC(=O)O)NC(=O)[C@H](CO)NC(=O)[C@@H](NC(=O)[C@H](Cc1ccccc1)NC(=O)[C@@H](NC(=O)CNC(=O)[C@H](CCC(N)=O)NC(=O)C(C)(C)NC(=O)[C@@H](N)Cc1c[nH]cn1)[C@@H](C)O)[C@@H](C)O)C(=O)N[C@@H](CC(=O)O)C(=O)N[C@@H](Cc1ccccc1)C(=O)N[C@H](C(=O)N[C@@H](CCC(=O)O)C(=O)N[C@@H](Cc1c[nH]c2ccccc12)C(=O)N[C@@H](CC(C)C)C(=O)N[C@@H](CC(C)C)C(=O)N[C@@H](CO)C(=O)N[C@@H](C)C(N)=O)[C@@H](C)CC)C(=O)O
[1]
  EC50 values for cAMP generation in HEK293 cells expressing Glucagon receptor: 0.35 nM
[2]
  EC50 values for cAMP generation in HEK293 cells expressing GLP-1 receptor: 0.36 nM

B5: H-HSQGTFTSDYSKYLDERRAKDFI-K(Hexadecanoyl-isoGlu)-WLLSA-NH2 [Compound 4] (peptide)
peptide: HSQGTFTSDYSKYLDERRAKDFIKWLLSA
HELM: PEPTIDE1{H.S.Q.G.T.F.T.S.D.Y.S.K.Y.L.D.E.R.R.A.K.D.F.I.K.W.L.L.S.A.[am]}|PEPTIDE2{[CCCCCCCCCCCCCCCC(=O)[*:2]].[gGlu]}$PEPTIDE1,PEPTIDE2,24:R3-2:R2$$$V2.0
SMILES: CCCCCCCCCCCCCCCC(=O)N[C@@H](CCC(=O)NCCCC[C@H](NC(=O)[C@@H](NC(=O)[C@H](Cc1ccccc1)NC(=O)[C@H](CC(=O)O)NC(=O)[C@H](CCCCN)NC(=O)[C@H](C)NC(=O)[C@H](CCCNC(=N)N)NC(=O)[C@H](CCCNC(=N)N)NC(=O)[C@H](CCC(=O)O)NC(=O)[C@H](CC(=O)O)NC(=O)[C@H](CC(C)C)NC(=O)[C@H](Cc1ccc(O)cc1)NC(=O)[C@H](CCCCN)NC(=O)[C@H](CO)NC(=O)[C@H](Cc1ccc(O)cc1)NC(=O)[C@H](CC(=O)O)NC(=O)[C@H](CO)NC(=O)[C@@H](NC(=O)[C@H](Cc1ccccc1)NC(=O)[C@@H](NC(=O)CNC(=O)[C@H](CCC(N)=O)NC(=O)[C@H](CO)NC(=O)[C@@H](N)Cc1c[nH]cn1)[C@@H](C)O)[C@@H](C)O)[C@@H](C)CC)C(=O)N[C@@H](Cc1c[nH]c2ccccc12)C(=O)N[C@@H](CC(C)C)C(=O)N[C@@H](CC(C)C)C(=O)N[C@@H](CO)C(=O)N[C@@H](C)C(N)=O)C(=O)O
[1]
  EC50 values for cAMP generation in HEK293 cells expressing Glucagon receptor: 0.79 nM
[2]
  EC50 values for cAMP generation in HEK293 cells expressing GLP-1 receptor: 1.31 nM
